Results as given in US20250043302A1, “MUTATED HYDROXYPHENYLPYRUVATE DIOXYGENASE POLYPEPTIDE, AND CODING GENE AND USE THEREOF” (BEIJING DABEINONG BIOTECHNOLOGY CO., LTD., priority 2021, published 2025).

Columns and labels:
Format in all cases: in vivo
[1] = test system: Arabidopsis thaliana T1 plants; assay: Topramezone tolerance of transgenic Arabidopsis thaliana T1 plants (spray, bleached leaf area grade, damage score); details: 7 DAT, Table 4; for Classification and statistics of the grade of pesticide damage: Grade 0 / Classification and statistics of the grade of pesticide damage: Grade 1 / Classification and statistics of the grade of pesticide damage: Grade 2 / Classification and statistics of the grade of pesticide damage: Grade 3: number of plants; for Scores: pesticide damage score 0-100
Method in brief: (§1)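 Damage graded 0–3 from the proportion of bleached leaf area 7 days after spraying. Plants were glufosinate-selected T1 lines, 18 days after sowing, plus vector and wild-type controls. Rates: mesotrione 52.5–420, isoxaflutole 35–280, topramezone 25–200 g ai/ha, with water (0×).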

[2] = test system: Arabidopsis thaliana T1 plants; assay: Isoxaflutole tolerance of transgenic Arabidopsis thaliana T1 plants (spray, bleached leaf area grade, damage score); design: Scores (pesticide damage): scale not given here; details: spray, Arabidopsis thaliana T1 plants; for Classification and statistics of the grade of pesticide damage: Grade 0 (number of plants) / Classification and statistics of the grade of pesticide damage: Grade 1 (number of plants) / Classification and statistics of the grade of pesticide damage: Grade 2 (number of plants) / Classification and statistics of the grade of pesticide damage: Grade 3 (number of plants): 16 plants
Method in brief: as §1

[3] = test system: Arabidopsis thaliana T1 plants; assay: Mesotrione tolerance of transgenic Arabidopsis thaliana T1 plants (spray, bleached leaf area grade, damage score); design: Scores: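 damage score 0-100 computed as Σ(N×S)/(T×M)×100 over grades 0-3 with higher meaning more damage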; details: Arabidopsis thaliana T1 plants; for Grade 0 (classification and statistics of the grade of pesticide damage; number of plants) / Grade 1 (classification and statistics of the grade of pesticide damage; number of plants) / Grade 2 (classification and statistics of the grade of pesticide damage; number of plants) / Grade 3 (classification and statistics of the grade of pesticide damage; number of plants): 16 plants
Method in brief: as §1

[4] = isoxaflutole 35 g ai/ha (0.5x field concentration)
[5] = isoxaflutole 70 g ai/ha (1x field concentration)

B1: NtHPPD-02: nucleotide sequence encoding wild-type Nicotiana tabacum HPPD; vector DBN11750 (nucleic acid)
DNA: ATGGGGAAGCTGGAAACCGTCACTACCACCTCGGCGGCGGCTGCTGATGATTCATCGGAATTAACAACCAACTTCAAGTTGGTTGGTTTCAAAAATTTCATCAGAACAAACCCAAGGTCTGATTTCTTCTCCGTCAAGAGCTTCCACCACATTGAATTCTGGTGCGGTGACGCAACTAACACAGCGCGCCGCTTCTCATGGAGCCTAGGGATGCCAATTGCAGCTAAGAGTGATCTTTCAACAGGAAACAGCGTGCACGCCTCCTACCTCCTCCGGCCCGTAAGCGGTTCTTTACAGTTCCTGTTTACAGCACCATATTCACCTTCTATTTCGACTCCTAGTTCAGCTGCAATCCCATCTTTTTCCACATCTACACATAGGTCTTTCACTACAACACATGGACTGGGTGTTCGTGCCGTCGCCCTCGAGGTGGAGAATGCTTATACTGCCTTCAGTGCTTCTGTCTCCAGAGGCGCCAAGCCAATGTTTGAACCTGTGACAATTGATGAACAAGTAGCAATGGCTGAGGTTCATTTGTACGGCGATGTTGTGCTGCGATTTGTTTCTTATCTCAAGGACGCCGACAACCTGGTCTTCCTGCCGGGGTTTGAGGCCATGGATGAAACTGCTAGTTACAAAGAACTTGATTATGGAATACGGCGTTTGGATCATGCTGTGGGCAATGTTCCAGAACTCGGCCCGGTAGTTGATTACATCAAGAGGTTTACTGGATTTCATGAATTTGCAGAGTTTACCGCTGAAGATGTGGGAACTGCGGAAAGTGGGCTAAACTCCATGGTTCTTGCGAACAATGATGAGACTGTGCTCCTCCCTCTGAATGAGCCTGTTTATGGCACCAAAAGAAAATCTCAGATACAAACATATCTTGAGCATAATGAAGGAGCTGGGGTGCAGCACCTTGCTCTTGTTACTGAAGACATCTTTAAGACTTTGACAGAGATGAGGAAGAGAAGTGGAGTTGGAGGTTTTGAGTTCATGCCTTCCCCCCCGCCGACCTACTACAAGAATTTGAAGAACAGGGCTGGTGACGTCCTCTCAGACGAGCAGATTTTGGCTTGTGAGGAGCTTGGCATCTTGGTAGACCGGGACGACCAGGGGACGCTTCTCCAAATTTTCACAAAACCCGTCGGGGACCGCCCCACCATATTTATTGAGATCATCCAGAGGATAGGCTGCATGCTTAAAGATGGAAAAGGTCAAGTGTACCAGAAGGGTGGTTGTGGTGGGTTTGGCAAAGGAAATTTTTCTGAGCTGTTCAGAAGCATAGAAGAATATGAGAAGACACTGGAAGCAAAACAAGCAAATCAAGTTGCGGCCGCGTGA
modifications: NtHPPD-02 Nucleotide Sequence
notes: vector DBN11750
B1 was tested, and the “Classification and statistics of the grade of pesticide damage: Grade 0” value ([1]; topramezone 25 g ai/ha (1×)) was 0, the “Classification and statistics of the grade of pesticide damage: Grade 1” value ([1]; topramezone 25 g ai/ha (1×)) was 0 and the “Classification and statistics of the grade of pesticide damage: Grade 2” value ([1]; topramezone 25 g ai/ha (1×)) was 0. For the same molecule, the “Classification and statistics of the grade of pesticide damage: Grade 3” value ([1]; topramezone 25 g ai/ha (1×)) was 16, the “Classification and statistics of the grade of pesticide damage: Grade 0” value ([1]; topramezone 100 g ai/ha (4×)) was 0 and the “Classification and statistics of the grade of pesticide damage: Grade 1” value ([1]; topramezone 100 g ai/ha (4×)) was 0. For the same molecule, the “Classification and statistics of the grade of pesticide damage: Grade 2” value ([1]; topramezone 100 g ai/ha (4×)) was 0, the “Classification and statistics of the grade of pesticide damage: Grade 3” value ([1]; topramezone 100 g ai/ha (4×)) was 16 and the Scores ([1]; topramezone 25 g ai/ha (1×)) was 100. The Scores ([1]; topramezone 100 g ai/ha (4×)) was 100, the Resistance evaluation ([1]; topramezone 25 g ai/ha (1×)) was “non-resistant (non-resistant plants (scores 68-100))” and the Resistance evaluation ([1]; topramezone 100 g ai/ha (4×)) was “non-resistant (non-resistant plants (scores 68-100))”. For the same molecule, the Resistance evaluation [2, 4] was “Non-resistant”, the “Scores (pesticide damage)” value [2, 4] was 100 and the “Classification and statistics of the grade of pesticide damage: Grade 0 (number of plants)” value [2, 4] was 0. For the same molecule, the “Classification and statistics of the grade of pesticide damage: Grade 1 (number of plants)” value [2, 4] was 0, the “Classification and statistics of the grade of pesticide damage: Grade 2 (number of plants)” value [2, 4] was 0 and the “Classification and statistics of the grade of pesticide damage: Grade 3 (number of plants)” value [2, 4] was 16. For the same molecule, the Resistance evaluation [2, 5] was “Non-resistant”, the “Scores (pesticide damage)” value [2, 5] was 100 and the “Classification and statistics of the grade of pesticide damage: Grade 0 (number of plants)” value [2, 5] was 0. For the same molecule, the “Classification and statistics of the grade of pesticide damage: Grade 1 (number of plants)” value [2, 5] was 0, the “Classification and statistics of the grade of pesticide damage: Grade 2 (number of plants)” value [2, 5] was 0 and the “Classification and statistics of the grade of pesticide damage: Grade 3 (number of plants)” value [2, 5] was 16. For the same molecule, the Resistance evaluation ([3]; mesotrione 52.5 g ai/ha) was “Non-resistant”, the Scores ([3]; mesotrione 52.5 g ai/ha) was 100 and the “Grade 0 (classification and statistics of the grade of pesticide damage; number of plants)” value ([3]; mesotrione 52.5 g ai/ha) was 0. For the same molecule, the “Grade 1 (classification and statistics of the grade of pesticide damage; number of plants)” value ([3]; mesotrione 52.5 g ai/ha) was 0, the “Grade 2 (classification and statistics of the grade of pesticide damage; number of plants)” value ([3]; mesotrione 52.5 g ai/ha) was 0 and the “Grade 3 (classification and statistics of the grade of pesticide damage; number of plants)” value ([3]; mesotrione 52.5 g ai/ha) was 16. The Resistance evaluation ([3]; mesotrione 105 g ai/ha) was “Non-resistant”, the Scores ([3]; mesotrione 105 g ai/ha) was 100 and the “Grade 0 (classification and statistics of the grade of pesticide damage; number of plants)” value ([3]; mesotrione 105 g ai/ha) was 0. For the same molecule, the “Grade 1 (classification and statistics of the grade of pesticide damage; number of plants)” value ([3]; mesotrione 105 g ai/ha) was 0, the “Grade 2 (classification and statistics of the grade of pesticide damage; number of plants)” value ([3]; mesotrione 105 g ai/ha) was 0 and the “Grade 3 (classification and statistics of the grade of pesticide damage; number of plants)” value ([3]; mesotrione 105 g ai/ha) was 16.
